Laboratory results: patent publication US20230395193A1 (priority 2020, published 2023)

Test system: SARS-CoV-1, MERS-CoV and SARS-CoV-2 proteins in HEK293T cells
Design: species or system human

B1: E-Q9BTV4 (protein, UniProt Q9BTV4 2-400, looked up)
Transmembrane protein 43: AANYSSTSTRREHVKVKTSSQPGFLERLSETSGGMFVGLMAFLLSFYLIFTNEGRALKTATSLAEGLSLVVSPDSIHSVAPENEGRLVHIIGALRTSKLLSDPNYGVHLPAVKLRRHVEMYQWVETEESREYTEDGQVKKETRYSYNTEWRSEIINSKNFDREIGHKNPSAMAVESFMATAPFVQIGRFFLSSGLIDKVDNFKSLSLSKLEDPHVDIIRRGDFFYHSENPKYPEVGDLRVSFSYAGLSGDDPDLGPAHVVTVIARQRGDQLVPFSTKSGDTLLLLHHGDFSAEEVFHRELRSNSMKTWGLRAAGWMAMFMGLNLMTRILYTLVDWFPVFRDLVNIGLKAFAFCVATSLTLLTVAAGWLFYRPLWALLIAGLALVPILVARTRVPAKKLE
B1 showed an MIST_MERS of 0.8753, an MIST_SARS1 of 0 and an MIST_SARS2 of 0. It also gave a Saint_MERS of 1, a Saint_SARS1 of 0 and a Saint_SARS2 of 0.

B2: M-Q4KMQ2 (protein, UniProt Q4KMQ2 1-910, looked up)
Anoctamin-6: MKKMSRNVLLQMEEEEDDDDGDIVLENLGQTIVPDLGSLESQHDFRTPEFEEFNGKPDSLFFNDGQRRIDFVLVYEDESRKETNKKGTNEKQRRKRQAYESNLICHGLQLEATRSVLDDKLVFVKVHAPWEVLCTYAEIMHIKLPLKPNDLKNRSSAFGTLNWFTKVLSVDESIIKPEQEFFTAPFEKNRMNDFYIVDRDAFFNPATRSRIVYFILSRVKYQVINNVSKFGINRLVNSGIYKAAFPLHDCKFRRQSEDPSCPNERYLLYREWAHPRSIYKKQPLDLIRKYYGEKIGIYFAWLGYYTQMLLLAAVVGVACFLYGYLNQDNCTWSKEVCHPDIGGKIIMCPQCDRLCPFWKLNITCESSKKLCIFDSFGTLVFAVFMGVWVTLFLEFWKRRQAELEYEWDTVELQQEEQARPEYEARCTHVVINEITQEEERIPFTAWGKCIRITLCASAVFFWILLIIASVIGIIVYRLSVFIVFSAKLPKNINGTDPIQKYLTPQTATSITASIISFIIIMILNTIYEKVAIMITNFELPRTQTDYENSLTMKMFLFQFVNYYSSCFYIAFFKGKFVGYPGDPVYWLGKYRNEECDPGGCLLELTTQLTIIMGGKAIWNNIQEVLLPWIMNLIGRFHRVSGSEKITPRWEQDYHLQPMGKLGLFYEYLEMIIQFGFVTLFVASFPLAPLLALVNNILEIRVDAWKLTTQFRRLVPEKAQDIGAWQPIMQGIAILAVVTNAMIIAFTSDMIPRLVYYWSFSVPPYGDHTSYTMEGYINNTLSIFKVADFKNKSKGNPYSDLGNHTTCRYRDFRYPPGHPQEYKHNIYYWHVIAAKLAFIIVMEHVIYSVKFFISYAIPDVSKRTKSKIQREKYLTQKLLHENHLKDMTKNMGVIAERMIEAVDNNLRPKSE
B2 showed an MIST_MERS of 0, an MIST_SARS1 of 0.864 and an MIST_SARS2 of 0.9939. It also gave a Saint_MERS of 0, a Saint_SARS1 of 0.32 and a Saint_SARS2 of 1.

B3: M-Q68DH5 (protein, UniProt Q68DH5 1-695, looked up)
G-protein coupled …: MSGAALGLEIVFVFFLALFLLHRYGDFKKQHRLVIIGTLLAWYLCFLIVFILPLDVSTTIYNRCKHAAANSSPPENSNITGLYATANPVPSQHPCFKPWSYIPDGIMPIFWRVVYWTSQFLTWILLPFMQSYARSGGFSITGKIKTALIENAIYYGTYLLIFGAFLIYVAVNPHLHLEWNQLQTIGIAAANTWGLFLLVLLLGYGLVEIPRSYWNGAKRGYLLMKTYFKAAKLMTEKADAEENLEDAMEEVRKVNESIKYNHPLRKCVDTILKKCPTEYQEKMGRNMDDYEDFDEKHSIYPSEKSLVKLHKQVIYSVQRHRRTQVQWQILLEQAFYLEDVAKNETSATHQFVHTFQSPEPENRFIQYFYNPTFEWYWECLLRPWFYKILAVVLSIFSVIVVWSECTFFSTTPVLSLFAVFIQLAEKTYNYIYIEIACFLSIFFLSICVYSTVFRIRVFNYYYLASHHQTDAYSLLFSGMLFCRLTPPLCLNFLGLTHMDSSISHKNTQPTAYTSIMGSMKVLSFIADGFYIYYPMLVVILCIATYFSLGTRCLNLLGFQQFMGDDDMTSDLVNEGKELIRKEKRKRQRQEEGENRRREWKERYGHNREDSTRNRNIHTDPKESNFSDVNTNRSAFKYTRANNRTERDRIELLQDAEPLDFNAETFTDDPLESESGRYQPGGRYLSMSRSDIFNDV
modifications: interaction partner of SARS-CoV-2 M
In the case of B3, the MIST_MERS is reported as 0.9869, the MIST_SARS1 is reported as 0.6855 and the MIST_SARS2 is reported as 0.2449. The Saint_MERS was 0.95, the Saint_SARS1 was 0 and the Saint_SARS2 was 0.

B4: M-Q5JRX3 (protein, UniProt Q5JRX3 29-1037, looked up)
Presequence protease, …: NSNRACERALQYKLGDKIHGFTVNQVTSVPELFLTAVKLTHDDTGARYLHLAREDTNNLFSVQFRTTPMDSTGVPHILEHTVLCGSQKYPCRDPFFKMLNRSLSTFMNAFTASDYTLYPFSTQNPKDFQNLLSVYLDATFFPCLRELDFWQEGWRLEHENPSDPQTPLVFKGVVFNEMKGAFTDNERIFSQHLQNRLLPDHTYSVVSGGDPLCIPELTWEQLKQFHATHYHPSNARFFTYGNFPLEQHLKQIHEEALSKFQKIEPSTVVPAQTPWDKPREFQITCGPDSFATDPSKQTTISVSFLLPDITDTFEAFTLSLLSSLLTSGPNSPFYKALIESGLGTDFSPDVGYNGYTREAYFSVGLQGIAEKDIETVRSLIDRTIDEVVEKGFEDDRIEALLHKIEIQMKHQSTSFGLMLTSYIASCWNHDGDPVELLKLGNQLAKFRQCLQENPKFLQEKVKQYFKNNQHKLTLSMRPDDKYHEKQAQVEATKLKQKVEALSPGDRQQIYEKGLELRSQQSKPQDASCLPALKVSDIEPTIPVTELDVVLTAGDIPVQYCAQPTNGMVYFRAFSSLNTLPEELRPYVPLFCSVLTKLGCGLLDYREQAQQIELKTGGMSASPHVLPDDSHMDTYEQGVLFSSLCLDRNLPDMMQLWSEIFNNPCFEEEEHFKVLVKMTAQELANGIPDSGHLYASIRAGRTLTPAGDLQETFSGMDQVRLMKRIAEMTDIKPILRKLPRIKKHLLNGDNMRCSVNATPQQMPQTEKAVEDFLRSIGRSKKERRPVRPHTVEKPVPSSSGGDAHVPHGSQVIRKLVMEPTFKPWQMKTHFLMPFPVNYVGECIRTVPYTDPDHASLKILARLMTAKFLHTEIREKGGAYGGGAKLSHNGIFTLYSYRDPNTIETLQSFGKAVDWAKSGKFTQQDIDEAKLSVFSTVDAPVAPSDKGMDHFLYGLSDEMKQAHREQLFAVSHDKLLAVSDRYLGTGKSTHGLAILGPENPKIAKDPSWIIQ
modifications: interactor of viral M protein
B4 was tested, and the MIST_MERS was 0, the MIST_SARS1 was 0.001111 and the MIST_SARS2 was 0.9523. For the same molecule, the Saint_MERS was 0, the Saint_SARS1 was 0 and the Saint_SARS2 was 1.

B5: M-Q6AI08 (protein, UniProt Q6AI08 1-1181, looked up)
HEAT repeat-containing …: MAAVQVVGSWPSVQPREAPREAIPERGNGFRLLSARLCALRPDDSSSARTEIHLLFDQLISENYSEGSGVAPEDVSALLVQACRLVPLNQNHLVSKVSQLIHHLLNRLQVIVDEQHLDFLLAYTISAIHQCSSWTHREILQALAALVYCNGSKCQKYLPELLGNTGLLMKLSDLAQSDPEVRRAAVHCMANLCLSVPGQPYLEEPYQNVCFQAFLTILQSPKSSDMDDITFCMLLQNALKGIQSLLNGGRMKLTQTDELGALLAVLKKFMFHGLPGLNIEMPTVLYPTPLPQYDGRTPIKPQQSESSASRPTLNKKKKSKVKPKKIQQGEEEEKESSGEIEAAPVTGTGRVNLHEGNTWCPSSLGVQSLPLDGSGAAEKDGVSSSFSSSSWKRVSSSESDFSDAEGGMQSKMRSYQAKVRQGALVCFLSTIKSIEKKVLYGYWSAFIPDTPELGSPQSVSLMTLTLKDPSPKTRACALQVLSAILEGSKQFLSVAEDTSDHRRAFTPFSVMIACSIRELHRCLLLALVAESSSQTVTQIIKCLANLVSNAPYDRLKLSLLTKVWNQIKPYIRHKDVNVRVSSLTLLGAIVSTHAPLPEVQLLLQQPCSSGLGNSNSATPHLSPPDWWKKAPAGPSLEETSVSSPKGSSEPCWLIRLCISIVVLPKEDSCSGSDAGSAAGSTYEPSPMRLEALQVLTLLARGYFSMTQAYLMELGEVICKCMGEADPSIQLHGAKLLEELGTGLIQQYKPDSTAAPDQRAPVFLVVMFWTMMLNGPLPRALQNSEHPTLQASACDALSSILPEAFSNLPNDRQMLCITVLLGLNDSKNRLVKAATSRALGVYVLFPCLRQDVIFVADAANAILMSLEDKSLNVRAKAAWSLGNLTDTLIVNMETPDPSFQEEFSGLLLLKMLRSAIEASKDKDKVKSNAVRALGNLLHFLQPSHIEKPTFAEIIEESIQALISTVLTEAAMKVRWNACYAMGNVFKNPALPLGTAPWTSQAYNALTSVVTSCKNFKVRIRSAAALSVPGKREQYGSVDQYARIWNALVTALQKSEDTIDFLEFKYCVSLRTQICQALIHLLSLASASDLPCMKETLELSGNMVQSYILQFLKSGAEGDDTGAPHSPQERDQMVRMALKHMGSIQAPTGDTARRAIMGFLEEILAVCFDSSGSQGALPGLTNQ
modifications: interaction partner of SARS-CoV-2 M
B5 showed an MIST_MERS of 0, an MIST_SARS1 of 0.8284 and an MIST_SARS2 of 0. It also gave a Saint_MERS of 0, a Saint_SARS1 of 0.97 and a Saint_SARS2 of 0.

B6: E-Q9NPI6 (protein, UniProt Q9NPI6 1-582, looked up)
mRNA-decapping enzyme 1A: MEALSRAGQEMSLAALKQHDPYITSIADLTGQVALYTFCPKANQWEKTDIEGTLFVYRRSASPYHGFTIVNRLNMHNLVEPVNKDLEFQLHEPFLLYRNASLSIYSIWFYDKNDCHRIAKLMADVVEEETRRSQQAARDKQSPSQANGCSDHRPIDILEMLSRAKDEYERNQMGDSNISSPGLQPSTQLSNLGSTETLEEMPSGSQDKSAPSGHKHLTVEELFGTSLPKEQPAVVGLDSEEMERLPGDASQKEPNSFLPFPFEQLGGAPQSETLGVPSAAHHSVQPEITTPVLITPASITQSNEKHAPTYTIPLSPVLSPTLPAEAPTAQVPPSLPRNSTMMQAVKTTPRQRSPLLNQPVPELSHASLIANQSPFRAPLNVTNTAGTSLPSVDLLQKLRLTPQHDQIQTQPLGKGAMVASFSPAAGQLATPESFIEPPSKTAAARVAASASLSNMVLAPLQSMQQNQDPEVFVQPKVLSSAIPVAGAPLVTATTTAVSSVLLAPSVFQQTVTRSSDLERKASSPSPLTIGTPESQRKPSIILSKSQLQDTLIHLIKNDSSFLSTLHEVYLQVLTKNKDNHNL
modifications: interactor of SARS-CoV-2 E
B6 gave an MIST_MERS of 0.9797, an MIST_SARS1 of 0 and an MIST_SARS2 of 0. For the same molecule, the Saint_MERS was 1, the Saint_SARS1 was 0 and the Saint_SARS2 was 0.

B7: M-Q5BJH7 (protein, UniProt Q5BJH7 1-314, looked up)
Protein YIF1B: MHPAGLAAAAAGTPRLRKWPSKRRIPVSQPGMADPHQLFDDTSSAQSRGYGAQRAPGGLSYPAASPTPHAAFLADPVSNMAMAYGSSLAAQGKELVDKNIDRFIPITKLKYYFAVDTMYVGRKLGLLFFPYLHQDWEVQYQQDTPVAPRFDVNAPDLYIPAMAFITYVLVAGLALGTQDRFSPDLLGLQASSALAWLTLEVLAILLSLYLVTVNTDLTTIDLVAFLGYKYVGMIGGVLMGLLFGKIGYYLVLGWCCVAIFVFMIRTLRLKILADAAAEGVPVRGARNQLRMYLTMAVAAAQPMLMYWLTFHLVR
B7 showed an MIST_MERS of 0.3712, an MIST_SARS1 of 0.9893 and an MIST_SARS2 of 0.5979. The Saint_MERS was 0, the Saint_SARS1 was 0.97 and the Saint_SARS2 was 1.
